Measured values as given in patent publication US12486322 (ANNEXON, dated 2025).

Tests used:
human C1q [1] = target: T1, human C1q (human, UniProt P02745 23-245; P02746 28-253; P02747 29-245); assay: cell-based or functional assay
human C1q [2] = target: T1, human C1q; assay: cell-based or functional assay; remark: listed apart in the source
[3] = target: T2, Cynomolgus serum derived C1q (cynomolgus monkey, UniProt A0A2K5WJV6 23-243; A0A2K5WNK0 28-253); assay: cell-based or functional assay
human C1q [4] = target: T1, human C1q; assay: sandwich ELISA, C1q from human serum captured by JL-1
Description: (§1) Evaluation of binding to serum derived C1q: We compared binding of anti-C1q molecules to C1q from monkey and human serum. Binding to serum derived C1q was preformed using a sandwich ELISA. In this assay, a monoclonal antibody specific to the collagen tail of C1q (JL-1, Abcam) was used to capture the C1q, and then detected using the anti-C1q antibodies, which bind to the globular head groups of C1q. […] Next day, the plates were washed with dPBS (pH 7.4) and blocked with dPBS buffer containing 3% bovine serum albumin (BSA). Diluted serum samples were added to the plates and incubated overnight shaking at 4° C. Human and monkey serum samples were used at 1:2000 dilution in assay buffer, dPBS containing 0.3% BSA and 0.1% tween. Following overnight incubation at 4 C, plates were warmed to room temperature for 2 hours. […] Plates were washed with dPBS with 0.05% tween and then incubated with alkaline phosphatase conjugated anti-human Fc or Kappa antibodies at 1:3000 dilution in assay buffer. Plates were then washed, and detected using an enzyme substrate (T2214, Thermo) and read in a plate reader. Counts were background subtracted and normalized to signal at highest concentration, % normalized values were plotted as a function of concentration for each of the antibodies. Data were fit using a 4-parameter logistic fit to derive $EC50$ of binding and plotted using GraphPad Prism.

[5] = target: T2, Cynomolgus serum derived C1q; assay: sandwich ELISA, C1q from cynomolgus serum captured by JL-1
Description: as §1

human C1q [6] = target: T1, human C1q; assay: direct ELISA, purified human C1q coated on the plate, luminescence
Description: Next day, plates are washed with dPBS thrice and blocked with 3% BSA/PBS for 1 hour at room temperature (RT). […] Following incubation for 1 hour at RT, plates are washed 4× with dPBS 0.05% Tween. Then, alkaline phosphatase (AP) conjugated secondary antibodies to human kappa (Abcam) and human FC (Jackson Immunoresearch), respectively at 2000-4000-fold dilution. After an additional 1 hour of incubation at RT, plates are washed 4× with dPBS 0.05% Tween and luminescence signal was developed with AP substrate (#T2214, Thermo Scientific). Luminescence counts were measured using a luminometer (Spectramax i3×, Molecular Devices). Raw counts were fit using a 4-parameter logistic to derive $EC50$ for human C1q binding (Prism, GraphPad).

[7] = target: T2, Cynomolgus serum derived C1q; assay: sandwich ELISA, serum C1q captured by JL-1; cynomolgus against human serum
Description: as §1

human C1q [8] = target: T1, human C1q; assay: sandwich ELISA, serum C1q captured by JL-1; the low end is tied to human serum by Table 1
Description: as §1

[9] = target: T2, Cynomolgus serum derived C1q; assay: sandwich ELISA, serum C1q captured by JL-1; the high end is tied to cynomolgus serum by Table 1
Description: as §1

[10] = target: T2, Cynomolgus serum derived C1q; assay: sandwich ELISA, serum C1q captured by JL-1; the high end is tied to the single-arm antibody by Table 1 (2.1)
Description: as §1

T1 sequence (P02745 23-245 limits assumed, chain 1 of 3): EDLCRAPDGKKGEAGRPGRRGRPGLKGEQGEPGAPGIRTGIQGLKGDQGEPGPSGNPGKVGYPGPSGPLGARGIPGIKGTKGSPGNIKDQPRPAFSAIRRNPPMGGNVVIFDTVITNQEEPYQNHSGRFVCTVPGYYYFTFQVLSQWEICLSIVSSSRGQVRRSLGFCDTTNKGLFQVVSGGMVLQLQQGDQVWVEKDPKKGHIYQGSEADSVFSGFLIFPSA
T1 sequence (P02746 28-253 limits assumed, chain 2 of 3): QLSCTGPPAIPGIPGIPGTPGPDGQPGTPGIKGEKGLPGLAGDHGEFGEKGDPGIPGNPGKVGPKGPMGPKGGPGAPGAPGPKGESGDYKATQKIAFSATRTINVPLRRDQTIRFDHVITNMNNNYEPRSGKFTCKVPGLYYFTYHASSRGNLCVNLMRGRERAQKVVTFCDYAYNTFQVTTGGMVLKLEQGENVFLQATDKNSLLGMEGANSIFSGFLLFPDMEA
T1 sequence (P02747 29-245 limits assumed, chain 3 of 3): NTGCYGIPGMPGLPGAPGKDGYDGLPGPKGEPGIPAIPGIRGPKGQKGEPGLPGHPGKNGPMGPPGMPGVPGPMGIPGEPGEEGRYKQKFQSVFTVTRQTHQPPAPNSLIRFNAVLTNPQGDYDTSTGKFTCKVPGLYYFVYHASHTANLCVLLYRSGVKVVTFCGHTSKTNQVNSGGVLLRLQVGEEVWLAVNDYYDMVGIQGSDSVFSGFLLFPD

B1: anti-C1q single-arm antibody (with IgG4 and Fcγ receptor binding site mutation) (antibody)
light: DVQITQSPSSLSASLGERATINCRASKSINKYLAWYQQKPGKAPKLLIYSGSTLQSGIPARFSGSGSGTDFTLTISSLEPEDFAMYYCQQHNEYPLTFGQGTKLEIKRTVAAPSVFIFPPSDEQLKSGTASVVCLLNNFYPREAKVQWKVDNALQSGNSQESVTEQDSKDSTYSLSSTLTLSKADYEKHKVYACEVTHQGLSSPVTKSFNRGEC
heavy: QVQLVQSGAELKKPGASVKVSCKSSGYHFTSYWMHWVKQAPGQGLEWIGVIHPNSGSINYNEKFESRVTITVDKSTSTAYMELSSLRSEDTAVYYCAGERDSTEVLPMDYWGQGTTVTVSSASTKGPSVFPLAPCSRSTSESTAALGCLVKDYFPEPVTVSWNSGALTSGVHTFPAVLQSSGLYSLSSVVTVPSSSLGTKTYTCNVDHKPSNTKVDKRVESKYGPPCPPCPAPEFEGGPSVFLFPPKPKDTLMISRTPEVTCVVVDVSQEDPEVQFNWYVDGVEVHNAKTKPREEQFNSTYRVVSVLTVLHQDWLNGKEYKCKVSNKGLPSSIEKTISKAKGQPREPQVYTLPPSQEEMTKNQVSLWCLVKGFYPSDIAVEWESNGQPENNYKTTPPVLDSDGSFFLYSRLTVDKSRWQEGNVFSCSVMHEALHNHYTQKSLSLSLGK
chain: ESKYGPPCPPCPAPEFEGGPSVFLFPPKPKDTLMISRTPEVTCVVVDVSQEDPEVQFNWYVDGVEVHNAKTKPREEQFNSTYRVVSVLTVLHQDWLNGKEYKCKVSNKGLPSSIEKTISKAKGQPREPQVYTLPPSQEEMTKNQVSLSCAVKGFYPSDIAVEWESNGQPENNYKTTPPVLDSDGSFFLVSRLTVDKSRWQEGNVFSCSVMHEALHNHYTQKSLSLSLGK
notes: The third chain is the N-terminally truncated heavy chain (hinge-CH2-CH3, hole mutations); also called single-arm molecule; anti-C1q single-arm antibody (monovalent)
Human C1q [1]
  IC50 for inhibition of serum hemolysis: 3 to 10 nM
Human C1q [2]
  IC50 for hemolysis inhibition (nM), Human serum: 9.9 nM
[3]
  IC50 for hemolysis inhibition (nM), Cyno serum: 5.5 nM
  IC50 for hemolysis inhibition, Ratio Cyno:Human: 0.6
Human C1q [4]
  EC50: 178 nM
[5]
  EC50: 378 nM
Human C1q [6]
  EC50: 0.05 nM
[7]
  Ratio Cyno:Human (binding EC50): 2.1
Human C1q [8]
  EC50: 150 to 400 nM
[9]
  EC50: 150 to 400 nM
[10]
  fold weaker binding EC50 in cynomolgus serum compared to human serum: 1 to 2 fold
